Test results published in patent US20110105397A1, “METHOD FOR TREATING HEART FAILURE WITH STRESSCOPIN-LIKE PEPTIDES” (priority 2009, published 2011).
Where a SMILES comes first, the peptide text is derived from it. Where no end group is shown, it is not given here. The star is where a group is joined. Succinimide(1-Et,3-yl) = CCN1C(=O)CC(*)C1=O

T1: human CRHR2 (Homo sapiens, UniProt Q13324)
T1 construct: expressed in transfected cells
T1 sequence (Q13324 1-411): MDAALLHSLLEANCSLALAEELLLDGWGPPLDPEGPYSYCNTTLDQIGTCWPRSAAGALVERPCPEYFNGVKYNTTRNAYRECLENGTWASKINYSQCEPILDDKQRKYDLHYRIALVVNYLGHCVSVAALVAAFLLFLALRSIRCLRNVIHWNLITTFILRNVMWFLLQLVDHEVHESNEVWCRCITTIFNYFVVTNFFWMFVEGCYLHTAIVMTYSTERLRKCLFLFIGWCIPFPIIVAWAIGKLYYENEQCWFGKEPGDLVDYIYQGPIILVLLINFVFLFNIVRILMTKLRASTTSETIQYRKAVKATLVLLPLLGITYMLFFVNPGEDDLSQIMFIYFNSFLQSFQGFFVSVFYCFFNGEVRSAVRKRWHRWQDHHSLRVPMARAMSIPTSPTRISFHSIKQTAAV

T2: human corticotrophin releasing hormone receptor type 2 (CRHR2) (human, UniProt Q13324 1-411)
T2 sequence (looked up): T1 sequence (Q13324 1-411)


What was measured:
human CRHR2 = biological target: T1, human CRHR2; assay: cAMP assay, h-CRHR2 transfected SK-N-MC cells; assay type: cell-based; conditions: Table 13; for EC50: cysteine mutation, N-ethylmaleimide capping, pegylation, read-out: pA50 (converted); for Log DR [M]: h-SCP control pA50 minus test compound pA50 within the same assay batch
Experimental: The concentration required for 50% maximum effect (A50) was 0.4 nM.
Human CRHR1 (accession number X72304) or CRHR2 (accession number U34587) were cloned into pcDNA3.1/Zeo expression vector and stably transfected into SK—N-MC cells by electroporation. Cells were maintained in MEM w/Earl's Salt with 10% FBS, 50 I.U. penicillin, 50 μg/ml streptomycin, 2 mM L-glutamine, 1 mM sodium pyruvate and 0.1 mM non-essential amino acids, 600 μg/ml G418. Cells were grown at 37° C. in 5% CO2
Cells were plated in 96-well tissue culture dishes (Biocoat from BD Biosciences) overnight at 50,000 cell/well. Cells were washed with PBS then resuspended in DMEM F-12 without phenol red, containing 10 μM isobutylmethylxanthine (IBMX). Cells were incubated with the peptides at concentrations ranging from 1 pM to 10 μM for 60 min at 37° Celsius. […] Forskolin (10 μM), a direct stimulant of adenylate cyclase, was used as positive control. The assays were stopped by the addition of 0.5 M HCl and mixing by orbital rotation for 2 h at 4° Celsius.
To assess the activity of the inventive polypeptide at the CRHR2, an intracellular cAMP measurement test using a Flash plate radioactive assay (Catalog No. Cus56088; Perkin Elmer, Mass., U.S.A.) was employed.
Transfected SK—N-MC cells were plated in 96-well Biocoat tissue culture dishes (BD Biosciences, San Jose, Calif., U.S.A) overnight at 50,000 cell/well. Cells were first washed with PBS and then suspended with DMEM/F-12 without phenol red, containing […]. Suspended cells were transferred into a 96-well flash plate coated with scintillant fluid. Cells were incubated with peptides ranging from 1 pM to 1 μM, for 60 min, at 37° Celsius. Forskolin at 10 μM was used as positive control. After ligand stimulation, cells were lysed by the addition of 0.5M HCl and mixed by orbital rotation for 2 h at 4° Celsius in order to release intracellular cAMP into the media.
Media containing released intracellular cAMP was transferred to a 96-well flash plate coated with scintillant fluid containing an anti-cAMP antibody. In this assay, intracellular cAMP competes with ^125I-labeled cAMP binding to the antibody. To generate a standard curve, cAMP ranging from 2.5 to 250 pmoles/ml was included in the experiment. [^125I]-cAMP was measured on a TopCount scintillation counter (Perkin Elmer, Mass., U.S.A).
Individual agonist concentration-response curve data were fitted to the Hill equation, see formula below, using GraphPad Prism (Graphpad Software, La Jolla, Calif., U.S.A.), to provide estimates of agonist concentration needed to generate one-half maximal response (A50), and the maximal asymptote (α) and Hill slope (nH) parameters. In this equation, [A] is the agonist concentration and E is the measured effect:
For display purposes the mean fitted parameter estimates were used to generate a single E/[A] curve shown superimposed on the mean experimental data. Potency estimates for agonists, pA50, are expressed as the negative logarithm of the midpoint of each curve and listed with their standard error of measurement (SEM). Logarithm base 10 of the agonist dose ratio (Log DR) values were calculated by subtraction of the test compound pA50 value from the corresponding h-SCP (SEQ ID NO:1) control pA50 value within the same assay batch. The SEM values of the Log DR values are given by the square root of the sum of the squared SEM values of the h-SCP (SEQ ID NO:1) control and test compound pA50 values.
Human and rat peptides (see Table 10) were used on the stimulation of h-CRHR1 or h-CRHR2 transfected SK—N-MC cells in the cAMP flash plate assay. Peptides were incubated for 1 hr at 37° Celsius. Curves were calculated using non-linear regression sigmoidal concentration-response analysis calculation in GraphPad Prism. The so obtained pA50 values are shown in Table 11 in addition to literature values. […]

[1] = biological target: T2, human corticotrophin releasing hormone …; assay: cell-based or functional assay

Row | Molecule | EC50 (human CRHR2) [nM] | Log DR [M] (human CRHR2) | Log DR [1] [log10] | pA50 [1]
1 | TKFTLSLDVPTNICNLLFNIAKAKNLRAQAAANAHLMAQI-NH2 [Cys-variant stresscopin-like peptide SEQ ID NO: 15] | – | – | 0.9 | 8.68 -log10(M)
2 | TKFTLSLDVPTNCMNLLFNIAKAKNLRAQAAANAHLMAQI-NH2 [Cys-variant stresscopin-like peptide SEQ ID NO: 14] | – | – | > 2 | ~7.34 -log10(M)
3 | TKFTLSLDVPTNIMNLCFNIAKAKNLRAQAAANAHLMAQI-NH2 [Cys-variant stresscopin-like peptide SEQ ID NO: 18] | – | – | 1.11 | 8.41 -log10(M)
4 | TKFTLSLDVPTCIMNLLFNIAKAKNLRAQAAANAHLMAQI-NH2 [Cys-variant stresscopin-like peptide SEQ ID NO: 13] | – | – | -0.01 | 9.59 -log10(M)
5 | TKFTLSLDVPTNIMNCLFNIAKAKNLRAQAAANAHLMAQI-NH2 [Cys-variant stresscopin-like peptide SEQ ID NO: 17] | – | – | 0.02 | 9.5 -log10(M)
6 | TKFTLSLDVPTCIMNLLFNIAKAKNLRAQAAANAHLMAQI (NES-PEG (about 20 kDa) on Cys 12; C-terminal amide (-NH2)) [Pegylated Cys-variant stresscopin-like peptide with NES linker and PEG about 20 kDa SEQ ID NO: 66] | – | – | 1.26 | 8.31 -log10(M)
7 | TKFTLSLDVPTNICNLLFNIAKAKNLRAQAAANAHLMAQI (NES-PEG (about 20 kDa) on Cys 14; C-terminal amide (-NH2)) [Pegylated Cys-variant stresscopin-like peptide with NES linker and PEG about 20 kDa SEQ ID NO: 68] | – | – | ~2.61 | ~6.96 -log10(M)
8 | TKFTLSLDVPTNCMNLLFNIAKAKNLRAQAAANAHLMAQI (NES-PEG (about 20 kDa) on Cys 13; C-terminal amide (-NH2)) [Pegylated Cys-variant stresscopin-like peptide with NES linker and PEG about 20 kDa SEQ ID NO: 67] | – | – | > 3 | ~6.35 -log10(M)
9 | TKFTLSLDVPTNIMCLLFNIAKAKNLRAQAAANAHLMAQI (NES-PEG (about 20 kDa) on Cys 15; C-terminal amide (-NH2)) [Pegylated Cys-variant stresscopin-like peptide with NES linker and PEG about 20 kDa SEQ ID NO: 69] | – | – | 2.09 | 7.45 -log10(M)
10 | TKFTLSLDVPTNIMCLLFNIAKAKNLRAQAAANAHLMAQI-NH2 [Cys-variant stresscopin-like peptide SEQ ID NO: 16] | – | – | 0.76 | 8.93 -log10(M)

Further lines, results first:

Row | EC50 (human CRHR2) [nM] | Log DR [M] (human CRHR2) | Log DR [1] [log10] | pA50 [1] | Molecule
11 | ~17.8 | ~1.72 | – | – | CC[C@H](C)[C@H](NC(=O)[C@H](CC(N)=O)NC(=O)[C@H](Cc1ccccc1)NC(=O)[C@H](CC(C)C)NC(=O)[C@H](CC(C)C)NC(=O)[C@H](CC(N)=O)NC(=O)[C@H](CCSC)NC(=O)[C@@H](NC(=O)[C@H](CC(N)=O)NC(=O)[C@@H](NC(=O)[C@@H]1CCCN1C(=O)[C@@H](NC(=O)[C@H](CC(=O)O)NC(=O)[C@H](CC(C)C)NC(=O)[C@H](CO)NC(=O)[C@H](CC(C)C)NC(=O)[C@@H](NC(=O)[C@H](Cc1ccccc1)NC(=O)[C@H](CCCCN)NC(=O)[C@@H](N)[C@@H](C)O)[C@@H](C)O)C(C)C)[C@@H](C)O)[C@@H](C)CC)C(=O)N[C@@H](C)C(=O)N[C@@H](CCCCN)C(=O)N[C@@H](C)C(=O)N[C@@H](CCCCN)C(=O)N[C@@H](CC(N)=O)C(=O)N[C@@H](CC(C)C)C(=O)N[C@@H](CCCNC(=N)N)C(=O)N[C@@H](C)C(=O)N[C@@H](CCC(N)=O)C(=O)N[C@@H](C)C(=O)N[C@@H](C)C(=O)N[C@@H](C)C(=O)N[C@@H](CC(N)=O)C(=O)N[C@@H](C)C(=O)N[C@@H](Cc1c[nH]cn1)C(=O)N[C@@H](CC(C)C)C(=O)N[C@@H](CCSC)C(=O)N[C@@H](C)C(=O)N[C@@H](CCC(N)=O)C(=O)N[C@@H](CSC1CC(=O)N(CC)C1=O)C(N)=O (stereo partly shown) [SEQ ID NO: 42, TKFTLSLDVPTNIMNLLFNIAKAKNLRAQAAANAHLMAQC(-NES)-NH2] (H-TKFTLSLDVPTNIMNLLFNIAKAKNLRAQAAANAHLMAQC(Succinimide(1-Et,3-yl))-NH2; N-terminus assumed)
12 | 0.162 | −0.32 | – | – | CC[C@H](C)[C@H](NC(=O)[C@H](CCC(N)=O)NC(=O)[C@H](C)NC(=O)[C@H](CCSC)NC(=O)[C@H](CC(C)C)NC(=O)[C@H](CSC1CC(=O)N(CC)C1=O)NC(=O)[C@H](C)NC(=O)[C@H](CC(N)=O)NC(=O)[C@H](C)NC(=O)[C@H](C)NC(=O)[C@H](C)NC(=O)[C@H](CCC(N)=O)NC(=O)[C@H](C)NC(=O)[C@H](CCCNC(=N)N)NC(=O)[C@H](CC(C)C)NC(=O)[C@H](CC(N)=O)NC(=O)[C@H](CCCCN)NC(=O)[C@H](C)NC(=O)[C@H](CCCCN)NC(=O)[C@H](C)NC(=O)[C@@H](NC(=O)[C@H](CC(N)=O)NC(=O)[C@H](Cc1ccccc1)NC(=O)[C@H](CC(C)C)NC(=O)[C@H](CC(C)C)NC(=O)[C@H](CC(N)=O)NC(=O)[C@H](CCSC)NC(=O)[C@@H](NC(=O)[C@H](CC(N)=O)NC(=O)[C@@H](NC(=O)[C@@H]1CCCN1C(=O)[C@@H](NC(=O)[C@H](CC(=O)O)NC(=O)[C@H](CC(C)C)NC(=O)[C@H](CO)NC(=O)[C@H](CC(C)C)NC(=O)[C@@H](NC(=O)[C@H](Cc1ccccc1)NC(=O)[C@H](CCCCN)NC(=O)[C@@H](N)[C@@H](C)O)[C@@H](C)O)C(C)C)[C@@H](C)O)[C@@H](C)CC)[C@@H](C)CC)C(N)=O (stereo partly shown) [SEQ ID NO: 43, TKFTLSLDVPTNIMNLLFNIAKAKNLRAQAAANAC(-NES) LMAQI-NH2] (H-TKFTLSLDVPTNIMNLLFNIAKAKNLRAQAAANAC(Succinimide(1-Et,3-yl))LMAQI-NH2)
13 | ~31.6 | ~1.97 | – | – | CC[C@H](C)[C@H](NC(=O)[C@H](CCC(N)=O)NC(=O)[C@H](C)NC(=O)[C@H](CCSC)NC(=O)[C@H](CC(C)C)NC(=O)[C@H](Cc1c[nH]cn1)NC(=O)[C@H](C)NC(=O)[C@H](CSC1CC(=O)N(CC)C1=O)NC(=O)[C@H](C)NC(=O)[C@H](C)NC(=O)[C@H](C)NC(=O)[C@H](CCC(N)=O)NC(=O)[C@H](C)NC(=O)[C@H](CCCNC(=N)N)NC(=O)[C@H](CC(C)C)NC(=O)[C@H](CC(N)=O)NC(=O)[C@H](CCCCN)NC(=O)[C@H](C)NC(=O)[C@H](CCCCN)NC(=O)[C@H](C)NC(=O)[C@@H](NC(=O)[C@H](CC(N)=O)NC(=O)[C@H](Cc1ccccc1)NC(=O)[C@H](CC(C)C)NC(=O)[C@H](CC(C)C)NC(=O)[C@H](CC(N)=O)NC(=O)[C@H](CCSC)NC(=O)[C@@H](NC(=O)[C@H](CC(N)=O)NC(=O)[C@@H](NC(=O)[C@@H]1CCCN1C(=O)[C@@H](NC(=O)[C@H](CC(=O)O)NC(=O)[C@H](CC(C)C)NC(=O)[C@H](CO)NC(=O)[C@H](CC(C)C)NC(=O)[C@@H](NC(=O)[C@H](Cc1ccccc1)NC(=O)[C@H](CCCCN)NC(=O)[C@@H](N)[C@@H](C)O)[C@@H](C)O)C(C)C)[C@@H](C)O)[C@@H](C)CC)[C@@H](C)CC)C(N)=O (stereo partly shown) [SEQ ID NO: 44, TKFTLSLDVPTNIMNLLFNIAKAKNLRAQAAAC(-NES)AH LMAQI-NH2] (H-TKFTLSLDVPTNIMNLLFNIAKAKNLRAQAAAC(Succinimide(1-Et,3-yl))AHLMAQI-NH2)
14 | – | – | ~2.07 | ~7.34 -log10(M) | TKFTLSLDVPTNIMNCLFNIAKAKNLRAQAAANAHLMAQI (NES-PEG (about 20 kDa) on Cys 16; C-terminal amide (-NH2)) [Pegylated Cys-variant stresscopin-like peptide with NES linker and PEG about 20 kDa SEQ ID NO: 70]
